# T1: sulfated hirudin fragment 54-65 (HirF) (UniProt P01050 P01050:54-65, not fully specified)
# T1 chain: GDFEEIPEEYLQ
# Experiments:
# [1] = target: T2, alpha-thrombin (Homo sapiens, UniProt P00734;P00734 P00734:328-363,P00734:364-622); test: FP; anisotropy increased more than 30% at 1:1; 20 mM Tris-HCl pH 7.6, 50 mM NaCl, 5% glycerol
# [2] = target: T2, alpha-thrombin; test: FP; anisotropy bait complex; slowly displaced by AT3
# [3] = target: T2, alpha-thrombin; test: FRET quenching slightly larger than FQ-15Ap; Exosite II; not displaced by HirF or AHT
# [4] = target: antithrombin III (AT3) (Homo sapiens, UniProt P01008 P01008:33-464); test: FRET control without thrombin, no fluorescence change; conditions: tags: Haematologic Technologies Inc; label: 5'-6-FAM, 3'-Dabcyl; G4
# [5] = target: T1, sulfated hirudin fragment 54-65 (HirF); test: as above; conditions: tags: Sigma-Aldrich; peptide with sulfated Tyr; label: 5'-6-FAM, 3'-Dabcyl; G4
# Chain of antithrombin III (AT3) (P01008 33-464, one chain of several): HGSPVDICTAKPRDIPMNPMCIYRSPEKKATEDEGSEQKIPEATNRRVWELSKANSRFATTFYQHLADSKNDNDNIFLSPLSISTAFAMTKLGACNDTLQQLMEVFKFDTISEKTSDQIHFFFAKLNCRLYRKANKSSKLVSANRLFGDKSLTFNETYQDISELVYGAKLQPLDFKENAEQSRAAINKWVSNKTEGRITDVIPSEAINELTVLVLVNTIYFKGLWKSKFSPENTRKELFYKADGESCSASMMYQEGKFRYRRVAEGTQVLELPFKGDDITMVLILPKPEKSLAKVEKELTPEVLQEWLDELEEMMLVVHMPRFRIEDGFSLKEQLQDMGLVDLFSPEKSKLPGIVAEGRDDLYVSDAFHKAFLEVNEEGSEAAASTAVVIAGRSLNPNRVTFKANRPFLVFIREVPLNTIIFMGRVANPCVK
binder,measurement,setting,value
GGTTGGTGTGGTTGG (ssDNA) [T-15Ap],binding result,[1],binds
ACCCGTGGTAGGGTAGGATGGGGTGGT (ssDNA) [T-27Ap],binding result,[2],binds
ACCCGTGGTAGGGTAGGATGGGGTGGT (ssDNA) [FQ-27Ap],binding result,[3],binds
GGTTGGTGTGGTTGG (ssDNA) [FQ-15Ap],binding result,[4],no binding
same,binding result,[5],no binding
